Laboratory results taken from publication PMC6774866 (Molecular immunology, 2019).
Where no end group is shown, it is not given here.

Legend:
[1] = target: UBC6e(1-197), randomly biotinylated with biotin-NHS (Mus musculus, UniProt Q9JJZ4, biotin on exposed Lys residues (random, biotin-N-hydroxysuccinimide ester)); assay: BLI
[2] = target: UBC6e(1-197)-LPETGGG-biotin (Mus musculus, UniProt Q9JJZ4, biotin at the C-terminus (LPETGGG-biotin, by sortagging)); assay: BLI
[3] = target: T1, Biotinylated 14-residue UBC6e peptide (Mus musculus (identical in human), UniProt Q9JJZ4, also: biotin, position not given here); assay: BLI
T1 chain: QADQEAKELARQIS-NH2

[4] = target: T2, eGFP-UBC6e(168-186) (Mus musculus (printed stretch matches …, UniProt Q9JJZ4, chimera, also: joined to eGFP)); assay: pull-down
T2 chain: GSSQADQEAKELARQISFK-NH2

[5] = target: T3, Arl3 sortagged with the UBC6e(168-186) tag (Mus musculus (UBC6e tag), UniProt Q9JJZ4, chimera, also: sortagged to Arl3); assay: pull-down
T3 chain: GSSQADQEAKELARQISFK-NH2

Chain of UBC6e(1-197)-LPETGGG-biotin (Q9JJZ4 1-197): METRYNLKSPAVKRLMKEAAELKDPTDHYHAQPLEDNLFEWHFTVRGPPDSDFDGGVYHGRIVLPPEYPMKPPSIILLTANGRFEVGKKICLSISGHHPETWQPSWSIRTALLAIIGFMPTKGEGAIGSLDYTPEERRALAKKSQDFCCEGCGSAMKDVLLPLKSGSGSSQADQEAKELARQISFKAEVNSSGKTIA
Chain of UBC6e(1-197), randomly biotinylated with biotin-NHS (Q9JJZ4 1-197): as above

B1: VHH05 (VHH)
VHH: QVQLQESGGGLVQPGGSLRLSCAASGFVFENSAMAWYRQAPGKERELIAVIGTTFIKLAESVKGRFTISRDNAKSTVYLQMNNLKPEDTAVYYCSKSGAYWGQGTQVTVSS
Kd [1]: 14 nM
Kd [2]: 16 nM
Kd [3]: ~0.15 nM
binding result [4]: binds
binding result [5]: binds
